Measurements published in patent US20120302737A1 (Genentech, published 2012).

Legend:
[1] = target: T1, EGFR on cells (NR6 expressing EGFR; HCA7) (UniProt P00533 25-1210, limits assumed); test: equilibrium binding on NR6 cells expressing EGFR, radiolabeled antibody competed with unlabeled antibody
T1 construct: whole, on cells; also called EGFR-NR6; EGFR-expressing NR6 cells

[2] = target: T2, HER2 receptor ECD (UniProt P04626 23-652, limits assumed); test: Octet; loaded probe, 1st antigen HER2
T2 construct: extracellular domain; also called HER2ECD; HER2 extracellular domain

[3] = target: T1, EGFR on cells (NR6 expressing EGFR; …); test: equilibrium binding on HCA7 cells co-expressing EGFR and HER2, radiolabeled antibody competed with unlabeled antibody
[4] = target: T2, HER2 receptor ECD; test: Octet; antibody loaded on the probe, 1st antigen HER2

Kd [1] [nM]	binding result [2]	Kd [3] [nM]	binding result [4]	Binder
1.15	no binding			one-armed α-EGFR engineered antibody (antibody, also called 1-armed α-EGFR; One-Armed EGFR) heavy: not shown not shown light: DIQMTQSPSSLSASVGDRVTITCRASQDVSTAVAWYQQKPGKAPKLLIYSASFLYSGVPSRFSGSGSGTDFTLTISSLQPEDFATYYCQQSYPTPYTFGQGTKVEIKRTVAAPSVFIFPPSDEQLKSGTASVVCLLNNFYPREAKVQWKVDNALQSGNSQESVTEQDSKDSTYSLSSTLTLSKADYEKHKVYACEVTHQGLSSPVTKSFNRGEC
0.56		0.34	no binding	wild-type α-EGFR antibody (D1.5) (antibody, human IgG1, kappa, V domains shown, also called Wt α-EGFR (D1.5); D1.5 anti-EGFR antibody) VH: EVQLVESGGGLVQPGGSLRLSCAASGFTFTGNWIHWVRQAPGKGLEWVGEISPSGGYTDYADSVKGRFTISADTSKNTAYLQMNSLRAEDTAVYYCARESRVSYEAAMDYWGQGTLVTVSS VL: DIQMTQSPSSLSASVGDRVTITCRASQDVSTAVAWYQQKPGKAPKLLIYSASFLYSGVPSRFSGSGSGTDFTLTISSLQPEDFATYYCQQSYPTPYTFGQGTKVEIKR
